One block for each binder: values may come before it.
Assays:
[1] = target: T1, purified recombinant nuclear cap-binding complex (CBC; heterodimer of CBP80 and CBP20) (human, UniProt Q09161;P52298); assay: pull-down
T1 sequence 1: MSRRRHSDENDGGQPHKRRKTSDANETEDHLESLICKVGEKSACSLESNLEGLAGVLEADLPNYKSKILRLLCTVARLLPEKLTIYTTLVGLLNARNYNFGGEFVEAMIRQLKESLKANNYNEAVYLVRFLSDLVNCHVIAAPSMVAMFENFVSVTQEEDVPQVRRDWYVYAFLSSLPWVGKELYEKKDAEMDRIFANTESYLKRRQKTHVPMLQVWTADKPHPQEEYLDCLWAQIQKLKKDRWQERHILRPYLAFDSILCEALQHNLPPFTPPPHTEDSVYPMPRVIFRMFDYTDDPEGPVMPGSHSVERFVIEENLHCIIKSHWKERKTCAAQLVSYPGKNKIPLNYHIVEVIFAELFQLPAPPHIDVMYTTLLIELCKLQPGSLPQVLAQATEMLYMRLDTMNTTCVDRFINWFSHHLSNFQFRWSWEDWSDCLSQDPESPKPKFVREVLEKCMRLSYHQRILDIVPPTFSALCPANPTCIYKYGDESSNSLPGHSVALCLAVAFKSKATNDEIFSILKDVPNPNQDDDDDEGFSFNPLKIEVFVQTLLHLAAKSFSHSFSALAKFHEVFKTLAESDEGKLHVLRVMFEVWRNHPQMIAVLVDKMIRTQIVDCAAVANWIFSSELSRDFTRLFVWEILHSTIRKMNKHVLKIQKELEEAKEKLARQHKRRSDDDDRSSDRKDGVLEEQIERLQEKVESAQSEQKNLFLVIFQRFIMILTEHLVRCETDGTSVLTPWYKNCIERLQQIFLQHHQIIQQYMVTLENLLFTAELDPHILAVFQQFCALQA
T1 sequence 2: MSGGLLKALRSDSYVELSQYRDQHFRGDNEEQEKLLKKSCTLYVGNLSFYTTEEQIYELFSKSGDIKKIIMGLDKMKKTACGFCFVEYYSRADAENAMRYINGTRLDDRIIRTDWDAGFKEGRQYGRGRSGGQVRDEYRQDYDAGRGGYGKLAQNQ

[2] = target: T2, CBP80, subunit of the purified recombinant CBC (human, UniProt Q09161 1-790); assay: far-Western, overlay or dot blot
T2 sequence: T1 sequence 1

- binding result [1]: binds
B1: purified recombinant FLAG-SRP54-NG (residues 1-293) (domain or fragment)
chain: MVLADLGRKITSALRSLSNATIINEEVLNAMLKEVCTALLEADVNIKLVKQLRENVKSAIDLEEMASGLNKRKMIQHAVFKELVKLVDPGVKAWTPTKGKQNVIMFVGLQGSGKTTTCSKLAYYYQRKGWKTCLICADTFRAGAFDQLKQNATKARIPFYGSYTEMDPVIIASEGVEKFKNENFEIIIVDTSGRHKQEDSLFEEMLQVANAIQPDNIVYVMDASIGQACEAQAKAFKDKVDVASVIVTKLDGHAKGGGALSAVAATKSPIIFIGTGEHIDDFEPFKTQPFISK

- binding result [2]: binds
B2: FLAG-SRP54 full-length (p3×FLAG-SRP54-FL) (natural protein)
chain: MVLADLGRKITSALRSLSNATIINEEVLNAMLKEVCTALLEADVNIKLVKQLRENVKSAIDLEEMASGLNKRKMIQHAVFKELVKLVDPGVKAWTPTKGKQNVIMFVGLQGSGKTTTCSKLAYYYQRKGWKTCLICADTFRAGAFDQLKQNATKARIPFYGSYTEMDPVIIASEGVEKFKNENFEIIIVDTSGRHKQEDSLFEEMLQVANAIQPDNIVYVMDASIGQACEAQAKAFKDKVDVASVIVTKLDGHAKGGGALSAVAATKSPIIFIGTGEHIDDFEPFKTQPFISKLLGMGDIEGLIDKVNELKLDDNEALIEKLKHGQFTLRDMYEQFQNIMKMGPFSQILGMIPGFGTDFMSKGNEQESMARLKKLMTIMDSMNDQELDSTDGAKVFSKQPGRIQRVARGSGVSTRDVQELLTQYTKFAQMVKKMGGIKGLFKGGDMSKNVSQSQMAKLNQQMAKMMDPRVLHHMGGMAGLQSMMRQFQQGAAGNMKGMMGFNNM
